Assay results reported in patent US20240116985A1 (published 2024).
Starred links: 1 amine or outer side, 2 acyl side, 3 side chain; linkers in the order of their positions; H or OH if unused. Positions of bridges follow the written chain, without caps; N, C: chain ends. Non-standard residues stand in square brackets, D forms with d. Primed or numbered codes have the meaning given here. B5(10) = 2-amino-2-(pent-4-en-1-yl)hept-6-enoic acid, bis(4-pentenyl)glycine, stitching residue bearing both staples, C=CCCCC(CCCC=C)(N[*:1])C(=O)[*:2]; PyrS2″ = (S)-3-amino-1-((pent-4-en-1-yloxy)carbonyl)pyrrolidine-3-carboxylic acid (stapling residue), C=CCCCOC(=O)N1CC[C@@](N[*:1])(C(=O)[*:2])C1; B5(4) = 2,2-bis(4-pentenyl)glycine = 2-amino-2-(pent-4-en-1-yl)hept-6-enoic acid (stitching residue), C=CCCCC(CCCC=C)(N[*:1])C(=O)[*:2]; B5(5) = 2,2-bis(4-pentenyl)glycine, 2-amino-2-(pent-4-en-1-yl)hept-6-enoic acid (stitching residue), C=CCCCC(CCCC=C)(N[*:1])C(=O)[*:2]; TfeGA = (S)-2-amino-3-((carboxymethyl)(2,2,2-trifluoroethyl)amino)propanoic acid, O=C([C@H](CN(CC(=O)[*:3])CC(F)(F)F)N[*:1])[*:2]; (EtSSpy)AspE = (S)-2-amino-4-oxo-4-(2-(pyridin-2-yldisulfaneyl)ethoxy)butanoic acid, O=C(C[C@H](N[*:1])C(=O)[*:2])OCCSSc1ccccn1; PyrS2 = (S)-3-amino-1-((pent-4-en-1-yloxy)carbonyl)pyrrolidine-3-carboxylic acid, C=CCCCOC(=O)N1CC[C@@](N[*:1])(C(=O)[*:2])C1; (Ac)GA = (S)-2-amino-3-(N-(carboxymethyl)acetamido)propanoic acid, CC(=O)N(CC(=O)[*:3])C[C@H](N[*:1])C(=O)[*:2]; GA = (S)-2-amino-3-((carboxymethyl)amino)propanoic acid, O=C([C@H](CNCC(=O)[*:3])N[*:1])[*:2]; Qui = (S)-2-amino-3-(quinolin-2-yl)propanoic acid, O=C([C@H](Cc1ccc2ccccc2n1)N[*:1])[*:2]; AspSH = (S)-2-amino-4-mercapto-4-oxobutanoic acid, O=C(C[C@H](N[*:1])C(=O)[*:2])S[*:3]; B5 = 2-amino-2-(pent-4-en-1-yl)hept-6-enoic acid, C=CCCCC(CCCC=C)(N[*:1])C(=O)[*:2]; B5(28) = 2,2-bis(4-pentenyl)glycine, C=CCCCC(CCCC=C)(N[*:1])C(=O)[*:2]; 2NH2F″ = O=C([C@H](Cc1ccccc1N[*:3])N[*:1])[*:2]; S7 = C[C@@](CCCCCC=[*:3])(N[*:1])C(=O)[*:2]; Phe(2-Cl) = N[C@@H](Cc1ccccc1Cl)C(=O)O; Phe(2-Me) = Cc1ccccc1C[C@H](N)C(=O)O; Bta = N[C@@H](Cc1csc2ccccc12)C(=O)O; Lys(iPr) = CC(C)NCCCC[C@H](N)C(=O)O; αAllylPro = C=CC[C@@]1(C(=O)O)CCCN1; tBuAla = CC(C)(C)C[C@H](N)C(=O)O; 3Thi = N[C@@H](Cc1ccsc1)C(=O)O; S8 = C=CCCCCCC[C@](C)(N)C(=O)O; PyrS2(4) = not defined here; Aib = CC(C)(N)C(=O)O

T1: B-cat-Halo (UniProt P35222 1-781)
T1 sequence (looked up): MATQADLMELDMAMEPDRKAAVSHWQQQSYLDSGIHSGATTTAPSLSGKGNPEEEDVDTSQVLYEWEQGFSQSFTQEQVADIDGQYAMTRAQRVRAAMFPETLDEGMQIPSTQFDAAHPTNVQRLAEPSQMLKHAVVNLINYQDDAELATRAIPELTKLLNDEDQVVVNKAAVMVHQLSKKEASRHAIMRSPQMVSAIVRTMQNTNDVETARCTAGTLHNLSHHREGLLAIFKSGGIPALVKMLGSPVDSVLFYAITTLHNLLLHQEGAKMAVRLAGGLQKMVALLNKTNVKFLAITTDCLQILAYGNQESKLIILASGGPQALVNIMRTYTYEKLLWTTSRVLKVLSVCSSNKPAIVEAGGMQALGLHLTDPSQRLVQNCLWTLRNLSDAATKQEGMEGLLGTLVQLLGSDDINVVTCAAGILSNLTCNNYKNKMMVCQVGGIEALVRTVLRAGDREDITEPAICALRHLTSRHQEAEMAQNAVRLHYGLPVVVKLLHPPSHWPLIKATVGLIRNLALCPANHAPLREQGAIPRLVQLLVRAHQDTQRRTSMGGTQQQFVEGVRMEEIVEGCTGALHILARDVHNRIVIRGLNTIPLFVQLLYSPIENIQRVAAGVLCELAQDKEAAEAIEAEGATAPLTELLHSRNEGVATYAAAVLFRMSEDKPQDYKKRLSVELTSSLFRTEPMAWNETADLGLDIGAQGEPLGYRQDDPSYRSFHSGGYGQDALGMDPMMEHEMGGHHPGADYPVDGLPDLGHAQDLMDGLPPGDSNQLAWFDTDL

T2: B-cat-Halo (beta-catenin HaloTag fusion expressed in HEK293 cells) (UniProt P35222 1-781)
T2 sequence (looked up): T1 sequence (looked up)

T3: beta-catenin (full-length, Uniprot ID P35222) (Homo sapiens (Human), UniProt P35222 2-781)
T3 construct: The FP protocol says 'full-length beta-Catenin (Uniprot ID P35222)'; also called bCat; B-Catenin
T3 sequence: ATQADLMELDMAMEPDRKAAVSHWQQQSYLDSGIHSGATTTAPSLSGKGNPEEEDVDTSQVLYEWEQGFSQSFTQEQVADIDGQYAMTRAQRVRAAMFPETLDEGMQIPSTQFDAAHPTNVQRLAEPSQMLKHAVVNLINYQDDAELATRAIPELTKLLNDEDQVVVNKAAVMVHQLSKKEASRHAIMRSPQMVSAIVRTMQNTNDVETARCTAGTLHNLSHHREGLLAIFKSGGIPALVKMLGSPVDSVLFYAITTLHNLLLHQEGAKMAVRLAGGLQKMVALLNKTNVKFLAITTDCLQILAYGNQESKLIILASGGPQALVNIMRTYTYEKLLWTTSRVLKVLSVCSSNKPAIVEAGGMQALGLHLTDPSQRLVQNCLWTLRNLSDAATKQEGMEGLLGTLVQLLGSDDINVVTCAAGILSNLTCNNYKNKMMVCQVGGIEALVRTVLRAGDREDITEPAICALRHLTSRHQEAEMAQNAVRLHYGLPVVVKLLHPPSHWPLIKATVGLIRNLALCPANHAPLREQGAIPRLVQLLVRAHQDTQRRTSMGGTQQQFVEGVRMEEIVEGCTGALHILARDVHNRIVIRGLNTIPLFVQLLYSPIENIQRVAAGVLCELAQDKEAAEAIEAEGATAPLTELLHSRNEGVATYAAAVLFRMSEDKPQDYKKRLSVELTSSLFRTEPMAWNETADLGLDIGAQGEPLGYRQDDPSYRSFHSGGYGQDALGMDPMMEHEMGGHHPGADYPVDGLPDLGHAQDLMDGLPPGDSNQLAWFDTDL

B1: I-133: Ac-PL3-Asp-Ala-B5-Asp-Glu-Ala-Ala-Phe-Val-S8-Phe-Trp-Aib-NH2 (peptide)
peptide: XDAXDEAAFVXFWX
modifications: not fully specified; N-terminal Ac; PL3 at 1; B5 at 4; S8 at 11; Aib at 14; C-terminal NH2; stapled by olefin metathesis (PL3-B5 and B5-S8)
notes: Stapled peptide

What follows are binders tested against T1, B-cat-Halo (assay: cell-based or functional assay).

NanoBRET Abs IC50 | Binder
24.7 µM | Ac-[αAllylPro]D[tBuAla][B5(10)]DDAAF[Lys(iPr)][PyrS2][Phe(2-Cl)][Bta]L-NH2 (staple 1-4, 4-11) [I-1280]
22.9 µM | Ac-[αAllylPro]D[tBuAla][B5(10)]DDAAF[Lys(iPr)][PyrS2][Phe(2-Cl)][Bta]T-NH2 (staple 1-4, 4-11) [I-1279]

The binders below were run against T2, B-cat-Halo (beta-catenin HaloTag fusion …) (assay: cell-based or functional assay).

NanoBRET Abs IC50 | Binder
34.1 µM | Ac-[αAllylPro]D[tBuAla][B5(4)]DDAA[2NH2F″]N[PyrS2(4)][Phe(2-Cl)][Bta]Q-NH2 (staple 1-4, 4-11; not fully specified; reading uncertain) [I-1727]
> 20 µM | Ac-[αAllylPro]D[tBuAla][B5(4)]D[GA]AAFN[PyrS2(4)][3Thi][Bta]Q-NH2 (staple 1-4, 4-11; not fully specified; reading uncertain) [I-1732]
29.5 µM | Ac-[αAllylPro]D[tBuAla][B5]D[GA]AAFL[PyrS2][3Thi][Bta]Q-NH2 (staple 1-4, 4-11) [I-1731]
23 µM | Ac-[αAllylPro]D[tBuAla][B5]D[(Ac)GA]AAFL[PyrS2][3Thi][Bta]Q-NH2 (staple 1-4, 4-11) [I-1729]
10 µM | Ac-[αAllylPro]D[tBuAla][B5]D[TfeGA]AAFL[PyrS2][Phe(2-Me)][Bta]Q-NH2 (staple 1-4, 4-11) [I-1725]
> 20 µM | Ac-[αAllylPro]D[tBuAla][B5]D[TfeGA]AAFL[PyrS2][Phe(2-Me)][Bta]Q-NH2 (staple 1-4, 4-11; also: -CH=CH- in each staple reduced to -CH2-CH2-) [I-1726]
> 20 µM | Ac-[αAllylPro][AspSH][tBuAla][B5]DDAAFN[PyrS2][Phe(2-Cl)][Bta]Q-NH2 (staple 1-4, 4-11; not fully specified) [I-1722]
> 20 µM | Ac-[αAllylPro]D[tBuAla][B5(5)]D[TfeGA]AAFL[PyrS2″][3Thi][Bta]L-NH2 (staple 1-4, 4-11) [I-1747]
29.7 µM | Ac-[αAllylPro][(EtSSpy)AspE][tBuAla][B5]DDAAFN[PyrS2][Phe(2-Cl)][Bta]Q-NH2 (staple 1-4, 4-11; not fully specified) [I-1724]
> 20 µM | Ac-[αAllylPro]D[tBuAla][B5]D[GA]AAFN[PyrS2][3Thi][Bta]Q-NH2 (staple 1-4, 4-11) [I-1733]

What follows are binders tested against T3, beta-catenin (full-length, Uniprot ID …) (assay: fluorescence polarization competition vs 5FAM-TCF4(10-53) on full-length beta-catenin).
Procedure: The plate was incubated protected from light for 60 minutes at 20° C. prior to read. Reads were performed on a CLARIOstar plate reader (BMG Labtech) in duplicate, and data were fitted to a 1:1 binding model with hill slope using an in-house script. All provided concentrations are final concentrations.

IC50 | Binder
5 µM | B1
5 µM | Ac-[αAllylPro]DA[B5]DEAAFV[S7]FWQ-NH2 (staple 1-4, 4-11, Stapled peptide) [I-132: Ac-PL3-Asp-Ala-B5-Asp-Glu-Ala-Ala-Phe-Val-S7-Phe-Trp-Gln-NH2]
2.7 µM | Ac-[αAllylPro]DA[B5(28)]DEAAFV[S8]FW[Aib]-NH2 (staple 1-4, 4-11, Stapled peptide) [I-134: Ac-PL3-Asp-Ala-B5-Asp-Glu-Ala-Ala-Phe-Val-S8-Phe-Trp-Aib-NH2]
2.27 µM | Ac-[αAllylPro]DA[B5(4)]DEAAFV[S8]F[Qui]Q-NH2 (staple 1-4, 4-11, Stapled peptide) [I-143: Ac-PL3-Asp-Ala-B5-Asp-Glu-Ala-Ala-Phe-Val-S8-Phe-Qui-Gln-NH2]
